Here are results for eleven compounds from patent publication US20050282743A1, “Molecular interactions in cells” (Arbor Vita Corporation, priority 2001, published 2005).

Ends that are not written are not given here. Peptide text beside a SMILES is read from it. * marks the point of attachment. Biotin = O=C1N[C@H]2[C@H](CS[C@H]2CCCCC(=O)*)N1

Experiment in all cases: G' assay (10 uM PL peptide), results of TABLE 7 and TABLE 12
Type in all cases: binding

Experiment [1] concerns the target T1, PDZ protein (GST-PDZ fusion) (Homo sapiens, UniProt Q9Y3R0).
T1 construct: made in house; host or cells: E. coli (DH5alpha, BL21 or JM109)
T1 sequence (Q9Y3R0 1-1128): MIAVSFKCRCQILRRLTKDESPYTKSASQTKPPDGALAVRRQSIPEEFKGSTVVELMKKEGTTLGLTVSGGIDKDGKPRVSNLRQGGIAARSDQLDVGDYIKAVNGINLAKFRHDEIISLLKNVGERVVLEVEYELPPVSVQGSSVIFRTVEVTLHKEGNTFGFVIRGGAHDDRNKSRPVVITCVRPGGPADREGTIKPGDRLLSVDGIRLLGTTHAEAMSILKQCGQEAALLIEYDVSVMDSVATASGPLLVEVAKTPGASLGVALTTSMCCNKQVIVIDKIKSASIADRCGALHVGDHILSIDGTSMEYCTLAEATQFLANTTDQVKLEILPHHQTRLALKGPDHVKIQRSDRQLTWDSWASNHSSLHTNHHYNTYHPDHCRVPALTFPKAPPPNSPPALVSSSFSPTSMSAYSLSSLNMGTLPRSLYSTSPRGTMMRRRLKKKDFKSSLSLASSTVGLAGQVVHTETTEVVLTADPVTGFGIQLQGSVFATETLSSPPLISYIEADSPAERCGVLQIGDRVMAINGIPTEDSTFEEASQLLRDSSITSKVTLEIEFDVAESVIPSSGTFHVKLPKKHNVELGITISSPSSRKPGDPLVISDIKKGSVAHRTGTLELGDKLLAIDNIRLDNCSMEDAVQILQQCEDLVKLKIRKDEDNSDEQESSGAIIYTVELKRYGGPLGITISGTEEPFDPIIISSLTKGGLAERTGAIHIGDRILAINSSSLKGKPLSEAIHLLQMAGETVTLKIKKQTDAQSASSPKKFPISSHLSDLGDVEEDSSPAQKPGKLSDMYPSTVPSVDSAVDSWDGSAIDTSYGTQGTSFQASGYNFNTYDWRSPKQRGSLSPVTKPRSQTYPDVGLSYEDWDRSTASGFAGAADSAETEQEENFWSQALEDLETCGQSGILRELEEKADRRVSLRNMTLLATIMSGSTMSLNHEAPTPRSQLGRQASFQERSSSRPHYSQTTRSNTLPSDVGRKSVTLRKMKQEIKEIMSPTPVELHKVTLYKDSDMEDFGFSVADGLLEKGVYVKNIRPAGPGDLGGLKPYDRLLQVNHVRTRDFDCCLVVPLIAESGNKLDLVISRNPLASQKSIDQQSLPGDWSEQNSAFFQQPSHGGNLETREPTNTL
The gist of the method:
(§1)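 Biotinylated PL peptides at 10 uM (vs 20 uM in G^0 assay) bound to GST-PDZ fusions; PDZ protein at 5 ug/ml unless another concentration listed. Bound peptide read as A450 nm, classified 0–5 (0 = A450 0; 5 = A450 >4 repeated).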

The target in experiment [2] is T2, PDZ protein (GST-PDZ fusion) (Homo sapiens, UniProt P50479).
T2 construct: made in house; host or cells: E. coli (DH5alpha, BL21 or JM109)
T2 sequence (P50479 1-330): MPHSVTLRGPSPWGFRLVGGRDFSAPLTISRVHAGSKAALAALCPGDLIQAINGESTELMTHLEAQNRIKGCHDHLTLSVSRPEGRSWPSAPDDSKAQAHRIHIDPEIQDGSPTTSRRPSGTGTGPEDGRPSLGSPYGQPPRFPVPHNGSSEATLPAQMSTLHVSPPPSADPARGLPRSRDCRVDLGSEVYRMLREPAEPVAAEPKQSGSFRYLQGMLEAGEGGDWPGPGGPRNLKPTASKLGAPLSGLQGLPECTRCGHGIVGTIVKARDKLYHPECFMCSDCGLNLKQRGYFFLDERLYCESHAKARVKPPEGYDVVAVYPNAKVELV
As to conditions: PDZ LIM RIL, PDZ Domain 1. The method in brief:
as §1

The target of experiment [3] is T3, PDZ protein (GST-PDZ fusion) (Homo sapiens, UniProt Q9NSN8).
T3 construct: made in house; host or cells: E. coli (DH5alpha, BL21 or JM109)
T3 sequence (Q9NSN8 1-517): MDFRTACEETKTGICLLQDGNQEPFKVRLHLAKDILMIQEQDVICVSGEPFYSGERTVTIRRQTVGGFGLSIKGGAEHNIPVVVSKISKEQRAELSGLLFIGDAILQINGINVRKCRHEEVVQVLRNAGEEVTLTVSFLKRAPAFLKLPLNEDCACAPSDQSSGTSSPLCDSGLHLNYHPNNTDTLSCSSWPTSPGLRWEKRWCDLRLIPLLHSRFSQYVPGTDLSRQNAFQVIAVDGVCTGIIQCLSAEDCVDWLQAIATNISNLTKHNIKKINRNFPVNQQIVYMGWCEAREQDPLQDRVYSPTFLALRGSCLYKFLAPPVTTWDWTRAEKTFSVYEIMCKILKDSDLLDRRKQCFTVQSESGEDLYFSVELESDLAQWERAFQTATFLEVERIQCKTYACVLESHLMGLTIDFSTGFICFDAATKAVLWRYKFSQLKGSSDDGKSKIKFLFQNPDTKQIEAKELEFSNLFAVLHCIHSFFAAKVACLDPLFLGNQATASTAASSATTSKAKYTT
The following applies: PDZ Syntrophin gamma-1, PDZ Domain 1. The gist of the method:
as §1

Take “A2AC_HUMAN (Modified) (Biotin-DFRPSFKHILFRRARRGFRQ; not fully specified)”: in experiment [1] (PDZ GRIP1, PDZ Domain 5), the Classification is on record as 1 (A450 nm 0-1).
In the case of “VHDAESSDEDGYDWGPATDL (Biotin-VHDAESSDEDGYDWGPATDL) [zona occludens 3 (ZO-3)]”, the Classification in experiment [2] is 2 (A450 nm 1-2).
On the same count and under the same terms, as for “QATSRNGHSARQHVVADTEL (Biotin-QATSRNGHSARQHVVADTEL) [CD34]”, the figure is 1 (A450 nm 0-1).
For the compound “ALVLIAFCIIRRRPSAYQAL (Biotin-ALVLIAFCIIRRRPSAYQAL) [CD68]”, the Classification in experiment [1] (PDZ GRIP1, PDZ Domain 6) was 1 (A450 nm 0-1).
For “A2AA_HUMAN (modified) (Biotin-HDFRRAFKKILARGDRKRIV; not fully specified)”, the Classification in experiment [3] is 2 (A450 nm 1-2).
The same measure, in the same setting: the figure for `CC[C@H](C)[C@H](NC(=O)[C@H](Cc1c[nH]cn1)NC(=O)[C@H](C)NC(=O)[C@H](C)NC(=O)[C@H](CO)NC(=O)[C@@H]1CCCN1C(=O)[C@H](CCCNC(=N)N)NC(=O)[C@H](CC(=O)O)NC(=O)[C@H](CCCCN)NC(=O)[C@@H]1CCCN1C(=O)[C@H](CC(=O)O)NC(=O)[C@H](CCC(=O)O)NC(=O)CCCC[C@@H]1SC[C@@H]2NC(=O)N[C@@H]21)C(=O)N[C@H](C(=O)N[C@@H](CCC(=O)O)C(=O)N[C@@H](C)C(=O)N[C@@H](CC(C)C)C(=O)N[C@@H](CCC(=O)O)C(=O)N[C@H](C(=O)N[C@@H](CC(=O)O)C(=O)N[C@H](C(=O)O)C(C)C)[C@@H](C)O)C(C)C` [PDZ-binding kinase (PBK)] (Biotin-EDPKDRPSAAHIVEALETDV-OH; C-terminus assumed) is 1 (A450 nm 0-1).
`CC(C)C[C@H](NC(=O)[C@H](C)NC(=O)[C@@H](NC(=O)[C@@H](NC(=O)[C@H](Cc1c[nH]cn1)NC(=O)[C@H](CC(C)C)NC(=O)CNC(=O)[C@H](CCC(N)=O)NC(=O)CNC(=O)CNC(=O)[C@H](C)NC(=O)[C@H](C)NC(=O)[C@H](CCCNC(=N)N)NC(=O)[C@H](C)NC(=O)[C@H](CO)NC(=O)[C@H](CC(=O)O)NC(=O)[C@H](CC(=O)O)NC(=O)[C@H](Cc1c[nH]c2ccccc12)NC(=O)[C@H](C)NC(=O)CCCC[C@@H]1SC[C@@H]2NC(=O)N[C@@H]21)C(C)C)[C@@H](C)O)C(=O)O` [LPAP] (Biotin-AWDDSARAAGGQGLHVTAL-OH; C-terminus assumed): the Classification in experiment [1] (PDZ GRIP1, PDZ Domain 3) is reported as 1 (A450 nm 0-1).
Regarding “LASKSAEEGKQIPDSLSTDL (Biotin-LASKSAEEGKQIPDSLSTDL) [Dock2]”, the Classification in experiment [2] is given as 1 (A450 nm 0-1).
Consider “LNETTETQRTLLNGDLQTSI (Biotin-LNETTETQRTLLNGDLQTSI) [SSTR2 (somatostatin recepor 2)]”, for which, in experiment [1] (PDZ GRIP1, PDZ Domain 7), the Classification was 1 (A450 nm 0-1).
For the compound “ELLQFCRTPNPALKNGQYWV (Biotin-ELLQFCRTPNPALKNGQYWV)”, the Classification in experiment [2] is 2 (A450 nm 1-2); in experiment [1] (PDZ GRIP1, PDZ Domain 5), 1 (A450 nm 0-1); in experiment [1] (PDZ GRIP1, PDZ Domain 7), 5 (A450 nm of 4 more than 2× repeated).
With `CC[C@H](C)[C@H](NC(=O)[C@H](C)NC(=O)[C@H](CC(C)C)NC(=O)[C@H](Cc1c[nH]c2ccccc12)NC(=O)[C@H](Cc1c[nH]cn1)NC(=O)[C@H](CCC(N)=O)NC(=O)[C@H](CC(C)C)NC(=O)[C@H](CCC(N)=O)NC(=O)[C@H](Cc1ccccc1)NC(=O)[C@H](CCC(N)=O)NC(=O)[C@H](CCCNC(=N)N)NC(=O)[C@@H](NC(=O)[C@H](CC(=O)O)NC(=O)[C@H](CCCNC(=N)N)NC(=O)[C@H](CCC(N)=O)NC(=O)[C@H](C)NC(=O)[C@@H](NC(=O)[C@H](CC(C)C)NC(=O)[C@H](Cc1c[nH]cn1)NC(=O)[C@H](Cc1c[nH]cn1)NC(=O)CCCC[C@@H]1SC[C@@H]2NC(=O)N[C@@H]21)C(C)C)[C@@H](C)CC)C(=O)O` [noradrenaline transporter] (Biotin-HHLVAQRDIRQFQLQHWLAI-OH; C-terminus assumed), in experiment [1] (PDZ GRIP1, PDZ Domain 6), the Classification is reported as 2 (A450 nm 1-2).
